Assay results published in PMC5861098.

Target: S. pombe Dcp2(1–243) (S. pombe) (UniProt O13828)
Chain of UniProt O13828 (O13828 1-243): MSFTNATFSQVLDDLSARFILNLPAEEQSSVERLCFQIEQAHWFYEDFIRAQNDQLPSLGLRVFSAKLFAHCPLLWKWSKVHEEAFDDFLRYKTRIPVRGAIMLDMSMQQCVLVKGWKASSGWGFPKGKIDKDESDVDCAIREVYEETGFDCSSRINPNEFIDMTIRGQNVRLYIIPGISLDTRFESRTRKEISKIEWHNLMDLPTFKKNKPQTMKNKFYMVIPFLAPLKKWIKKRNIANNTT

Sp Edc1 (155–180) peptide was tested, and the kmax of single-turnover in vitro decapping of a capped 29-mer RNA by Sp Dcp1–Dcp2(1–243) (m7 in complex with m6), with and without Edc1(155–180) peptide (50 µM) was 10 fold.
